Data published in PMC7351759, “Nuclear moonlighting of cytosolic glyceraldehyde-3-phosphate dehydrogenase regulates Arabidopsis response to heat stress” (Nature Communications, 2020).
One block for each binder: values may come before it.

Assays:
Conditions in all cases: both partners purified
GAPC2-Flag (cytosolic …) = target: T1, GAPC2-Flag (cytosolic glyceraldehyde-3-phosphate dehydrogenase 2) (Arabidopsis, UniProt Q9FX54 1-338); assay: co-IP; GAPC1-Flag or GAPC2-Flag purified from Arabidopsis mixed with purified NF-YC10-6xHis; IP with anti-Flag antibody and Protein A-agarose, overnight at 4 °C, buffer A (20 mM NaH2PO4 pH 8.0, 150 mM NaCl); blot with anti-6xHis antibody
T1 construct: Cytosolic glyceraldehyde-3-phosphate dehydrogenase GAPC2 of Arabidopsis; CaMV-35S promoter; source: Arabidopsis overexpressing GAPC2-Flag, purified with an anti-Flag antibody and Protein A-agarose
T1 sequence (Q9FX54 whole entry): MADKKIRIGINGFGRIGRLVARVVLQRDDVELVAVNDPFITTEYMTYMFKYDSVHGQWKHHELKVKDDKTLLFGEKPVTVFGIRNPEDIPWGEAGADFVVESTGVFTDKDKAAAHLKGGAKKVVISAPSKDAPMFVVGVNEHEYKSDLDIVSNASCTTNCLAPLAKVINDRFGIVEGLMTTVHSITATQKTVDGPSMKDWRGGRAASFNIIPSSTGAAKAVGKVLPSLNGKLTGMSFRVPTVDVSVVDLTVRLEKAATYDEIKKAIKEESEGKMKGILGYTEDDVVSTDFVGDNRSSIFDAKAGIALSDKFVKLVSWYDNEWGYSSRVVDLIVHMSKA

GAPC1-Flag (cytosolic …) = target: T2, GAPC1-Flag (cytosolic glyceraldehyde-3-phosphate dehydrogenase 1) (Arabidopsis, UniProt P25858 1-338); assay: as above
T2 construct: Cytosolic glyceraldehyde-3-phosphate dehydrogenase GAPC1 of Arabidopsis; CaMV-35S promoter; source: Arabidopsis overexpressing GAPC1-Flag, purified with an anti-Flag antibody and Protein A-agarose
T2 sequence (P25858 whole entry): as the sequence (Q9FX54 whole entry) above, with H61N, V65I, D68E, G92A, F98Y, S227A, M274L counted along it

GAPC2-6xHis = target: T3, GAPC2-6xHis (Arabidopsis, UniProt Q9FX54 1-338); assay: co-IP; purified GAPC2-6xHis or GAPC2mut’-6xHis mixed with NF-YC10-6xHis-STREP; IP with anti-STREP antibody, blot with anti-6xHis antibody
T3 construct: Cytosolic glyceraldehyde-3-phosphate dehydrogenase GAPC2 of Arabidopsis; source: purified
T3 sequence (Q9FX54 whole entry): as the sequence (Q9FX54 whole entry) above

binding result (GAPC2-Flag (cytosolic …)): binds
binding result (GAPC1-Flag (cytosolic …)): binds
B1: NF-YC10-6xHis (natural protein, Arabidopsis, UniProt Q58CM8 1-195, looked up)
chain: MRRPKSSHVRMEPVAPRSHNTMPMLDQFRSNHPETSKIEGVSSLDTALKVFWNNQREQLGNFAGQTHLPLSRVRKILKSDPEVKKISCDVPALFSKACEYFILEVTLRAWMHTQSCTRETIRRCDIFQAVKNSGTYDFLIDRVPFGPHCVTHQGVQPPAEMILPDMNVPIDMDQIEEENMMEERSVGFDLNCDLQ
notes: Nuclear factor Y subunit C10, cloned from Arabidopsis; also called recombinant NF-YC10

binding result (GAPC2-6xHis): binds
B2: NF-YC10-6xHis-STREP (natural protein, Arabidopsis, UniProt Q58CM8 1-195, looked up)
chain: B1 chain
notes: Nuclear factor Y subunit C10 of Arabidopsis
